Here are results for 1 molecule from PMC7617672, “Oryza genera-specific novel Histone H4 variant predisposes H4 Lysine5 Acetylation marks to modulate salt stress responses”.

For series [1], the target named is rice histone H2A;rice histone H2B;rice histone H3;rice histone H4 (Oryza sativa;Oryza sativa;Oryza …, UniProt A2YMC6;A2WKP5;A2Y533;B7F4Q1 ;;;1-103, |||). The series can be described thus: EMSA (nucleosome reconstitution, native PAGE); NCP gel: native 6% acrylamide, 0.5x TBE; peptide pull-down: 10 mM Tris pH 8.0, 50 mM NaCl, 5 mM MgCl2, 4 C, 6 h; cryo-EM: 10 mM Tris pH 8.0, 50 mM NaCl, 1 mM EDTA. To be noted: protein: recombinant;recombinant;recombinant;recombinant; tags: none;none;none;N-terminal MGS extension from vector; chain copies: 2;2;2;2; blunt. For orientation: In EMSA bound probe runs differently from free probe, usually more slowly.

For series [2], the target named is rice histone H2A;rice histone H2B;rice histone H3;H4.VS (H4.V N-terminal 53 aa fused to H4 C-terminal 50 aa) (Oryza sativa;Oryza sativa;Oryza …, UniProt A2YMC6;A2WKP5;A2Y533;PDB:8Q16_4 ;;;, |||). The series can be described thus: EMSA (nucleosome reconstitution, native PAGE); mobility shift similar to H4 NCP; NCP gel: native 6% acrylamide, 0.5x TBE; peptide pull-down: 10 mM Tris pH 8.0, 50 mM NaCl, 5 mM MgCl2, 4 C, 6 h; cryo-EM: 10 mM Tris pH 8.0, 50 mM NaCl, 1 mM EDTA. Particulars: protein: recombinant;recombinant;recombinant;recombinant; tags: none;none;none;none; chain copies: 2;2;2;2; blunt.

B1: Widom 601 NPS (147 bp as stated; 146 nt printed) (dsDNA)
DNA 1: CTGGAGAATCCCGGTGCCGAGGCCGCTCAATTGGTCGTAGACAGCTCTAGCACCGCTTAAACGCACGTACGCGCTGTCCCCCGCGTTTTAACCGCCAAGGGGATTACTCCCTAGTCTCCAGGCACGTGTCACATATATACATCCTG
DNA 2: CAGGATGTATATATGTGACACGTGCCTGGAGACTAGGGAGTAATCCCCTTGGCGGTTAAAACGCGGGGGACAGCGCGTACGTGCGTTTAAGCGGTGCTAGAGCTGTCTACGACCAATTGAGCGGCCTCGGCACCGGGATTCTCCAG
On to B1, for which the binding result in series [1] and in series [2] was “binds” throughout.
